Source: patent US20230193248A1

Key:
[1] = molecular target: T1, M15-K(biotin)-AAR (SEQ ID NO: 8) peptide
T1 chain: KAAR

[2] = molecular target: M15-L-P1 target polypeptide, P1 = V
[3] = molecular target: M15-L-P1 target polypeptide, P1 = L
[4] = molecular target: M15-L-P1 target polypeptide, P1 = M
[5] = molecular target: M15-L-P1 target polypeptide, P1 = I
[6] = molecular target: M15-L-P1 target polypeptide, P1 = A
[7] = molecular target: M15-L-P1 target polypeptide, P1 = Q

Protein	percentage of conversion to cleavage product M15-K(biotin)-A (HPLC, UV absorbance at 254 nm) [1]	cleavage of single labeled NTAA [2]	cleavage of single labeled NTAA [3]	cleavage of single labeled NTAA [4]	cleavage of single labeled NTAA [5]	cleavage of single labeled NTAA [6]	cleavage of single labeled NTAA [7]
engineered dipeptidyl peptidase clone (SEQ ID NO: 11) derived from dipeptidyl peptidase from Thermomonas hydrothermalis (SEQ ID NO: 10) (protein) DEGMWVPQQLPEIAGALKKAGLKLDPKQLSDLTGDPMGAVVSLGGCTGSFVSPQGLVATNHHCAYGAIQLNSTPEKNLIKDGFNAPTQADELSAGPNARIYVLEGITDVTAQAKAAMAAAGNDPVARANALEAFEKKITSDCEAEPGYRCRVYSFMGGITYRLFKNLEIKDVRLVYAPPSSVGKFGGDIDMGMWPTHTGDFSFYRAYVGKDGKPAPYSKDNVPYRPKHWLKIADTPLGEGDFVMVAGYPGRTDRYALVAEFENTQNWLYPAISKAYKDQIALVEAAAKDNPEIAVKYAAALAGWNRTSKNFDGQLEGFKRNDVLAIKRREEAAVLEWLRARGKAGTPALEAHAALVKLVADTARTQERDLVLGSFNRTGIIGVAVNLYRLAIERQKPDAEREPGYQQRDLPVIEGSLKQMERRYVPAMDRQLRAYWLDRYVALPAAQHVAAVDAWLGGSDKAAAEAALARLDQSRLGSLEERLKWFNADRAAFEASTDPAIQYAVAVMPTLLAMEQQAKTRYGVALEARPRYLQAVVDYKKSKGQAVYPDANSTLRITYGHVKGYTGLNGKVYTPFTTLEEVAAKETGVEPFDNPKALLEAVAAKRYAGLADARLGTVPVNFLADLDITGGNSGSPVLDANGRLVGLAFAVTLESVASNWVFDPVLTRMISVDQRYMRWIMQEVMPAPQLLEELGVPPRQ	about 10% of the model peptide was converted to the cleavage product, M15-K(biotin)-A	–	–	–	–	–	–
first selected modified cleavase (M15-L Z001) (protein) MHKTRLVAALAAALATLAPAAWADEGMWVPQQLPEIAGALKKAGLKLDPKQLSDLTGDPMGAVVSLGGCTGSFVSPQGLVATNHHCAYGAIQLNSTPEKNLIKDGFNAPTQADELSAGPNARIYVLEGITDVTAQAKAAMAAAGNDPVARANALEAFEKKITSDCEAEPGYRCRVYSFMGGITYRLFKNLEIKDVRLVYAPPSSVGKFGGDIDMGMWPTHTGDFSFYRAYVGKDGKPAPYSKDNVPYRPKHWLKIADTPLGEGDFVMVAGYPGRTDRYALVAEFENTQNWLYPAISKAYKDQIALVEAAAKDNPEIAVKYAAALAGWNRTSKNFDGQLEGFKRNDVLAIKRREEAAVLEWLRARGKAGTPALEAHAALVKLVADTARTQERDLVLGSFNRTGIIGVAVNLYRLAIERQKPDAEREPGYQQRDLPVIEGSLKQMERRYVPAMDRQLRAYWLDRYVALPAAQHVAAVDAWLGGSDKAAAEAALARLDQSRLGSLEERLKWFNADRAAFEASTDPAIQYAVAVMPTLLAMEQQAKTRYGVALEARPRYLQAVVDYKKSKGQAVYPDANSTLRITYGHVKGYTGLNGKVYTPFTTLEEVAAKETGVEPFDNPKALLEAVAAKRYAGLADARLGTVPVNFLADLDITGGNSGSPVLDANGRLVGLAFAGTLESVASNWVFDPVLTRMISVDQRYMRWIMQEVMPAPQLLEELGVPPRQ	–	provided 100% cleavage	provided 100% cleavage	provided 100% cleavage	provided 100% cleavage	provided 100% cleavage	provided 100% cleavage
